Results taken from the supplement of paper PMC7125110.
± gives the standard error. Variants at the floor of the assay were thinned out.

B1: glmS ribozyme (parent)
chain: AUAAAAGCGCCAGAACUACAGAAAUGUAGUUGACGAGGAGGAGGUUUAUCGAAUUUUCGGCGGAUGCCUCCAAA

Assays:
Details in all cases: with glucosamine-6-phosphate
[1] = variants of: B1; assay: self-cleavage kobs at 40 uM GlcN6P; higher = faster cleavage; RNA array
Summary of the method: (§1)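 The measurements used barcoded ribozyme variants on sequenced MiSeq chips, transcribed in situ by E. coli RNA polymerase and tracked at 37 °C with a hybridised Cy3 probe. Glucosamine-6-phosphate, 40 μM to 10 mM in HEPES/KCl/Mg(OAc)2 buffer, was flowed in while tiles were imaged over ~14 h. Baseline-normalised signals, also normalised to non-cleaving reference variants, gave per-tile medians that were fit to one- or two-exponential decays for kobs. kcat and KM resulted from weighted Michaelis–Menten fits across concentrations.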

[2] = variants of: B1; assay: self-cleavage kobs at 640 uM GlcN6P; higher = faster cleavage; RNA array
Summary of the method: as §1

[3] = variants of: B1; assay: self-cleavage kobs at 2500 uM GlcN6P; higher = faster cleavage; RNA array
Summary of the method: as §1

[4] = variants of: B1; assay: self-cleavage kobs at 10000 uM GlcN6P; higher = faster cleavage; RNA array
Summary of the method: as §1

[5] = variants of: B1; assay: self-cleavage kobs at 160 uM GlcN6P; higher = faster cleavage; RNA array
Summary of the method: as §1

Variant: AUAAAAGCGCCAGAACUACAGAAAUGUAGUUGAAUAAGAGGAGGUUUAACGAAUUCUCGGCGGAUGCCUCCAAA
- self-cleavage kobs at 40 uM GlcN6P [1]: < 1e-05 s⁻¹
- self-cleavage kobs at 640 uM GlcN6P [2]: < 1e-05 s⁻¹
- self-cleavage kobs at 2500 uM GlcN6P [3]: < 1e-05 s⁻¹
- self-cleavage kobs at 10000 uM GlcN6P [4]: < 1e-05 s⁻¹

Variant: AUAAAAGCGCCAGAGCUACAGAAAUGUAGUUGACGAGGAGGAGGUUUAUCGAAUUUUCGGCGGGUGCCUCCAAA
- self-cleavage kobs at 40 uM GlcN6P [1]: 0.000819 ± 0.00013 s⁻¹
- self-cleavage kobs at 160 uM GlcN6P [5]: 0.00196 ± 0.00048 s⁻¹
- self-cleavage kobs at 640 uM GlcN6P [2]: 0.0063 ± 0.0012 s⁻¹
- self-cleavage kobs at 2500 uM GlcN6P [3]: 0.00698 ± 0.0018 s⁻¹
- self-cleavage kobs at 10000 uM GlcN6P [4]: 0.0604 ± 0.017 s⁻¹

Variant: AUAAAAGCCCCAGAACUACAGAAAUGUAGUUGACGAGGAGGAGGUUUAUCGAUUUUUCGGCGGAUGCCUCCAAA
- self-cleavage kobs at 40 uM GlcN6P [1]: < 1e-05 s⁻¹
- self-cleavage kobs at 160 uM GlcN6P [5]: < 1e-05 s⁻¹
- self-cleavage kobs at 640 uM GlcN6P [2]: < 1e-05 s⁻¹
- self-cleavage kobs at 2500 uM GlcN6P [3]: < 1e-05 s⁻¹
- self-cleavage kobs at 10000 uM GlcN6P [4]: < 1e-05 s⁻¹

Variant: AUAAAAACGCCAGAACUACAGAAAUGUAGUUGACGUGGAGGAGGUUUAUCGAAUUUUCGGCGGAUGCCUCCAAA
- self-cleavage kobs at 40 uM GlcN6P [1]: < 1e-05 s⁻¹
- self-cleavage kobs at 160 uM GlcN6P [5]: < 1e-05 s⁻¹
- self-cleavage kobs at 640 uM GlcN6P [2]: < 1e-05 s⁻¹
- self-cleavage kobs at 2500 uM GlcN6P [3]: < 1e-05 s⁻¹

Variant: AUAAAAGCGCCAGAACUACAGAAAUGUAGUUGACGAGCAGGAGGUUUAUCGAAUUUCCGGCGGAUGCCUCCAAA
- self-cleavage kobs at 40 uM GlcN6P [1]: < 1e-05 s⁻¹
- self-cleavage kobs at 160 uM GlcN6P [5]: < 1e-05 s⁻¹
- self-cleavage kobs at 10000 uM GlcN6P [4]: < 1e-05 s⁻¹

Variant: AUAAAAGCGCCAGAACUACAGAAAUGUAGUUGACAAGGAGGAGGUUUAUCGAAUUUUCGGCGGAUGCAUCCAAA
- self-cleavage kobs at 40 uM GlcN6P [1]: < 1e-05 s⁻¹
- self-cleavage kobs at 160 uM GlcN6P [5]: < 1e-05 s⁻¹
- self-cleavage kobs at 640 uM GlcN6P [2]: < 1e-05 s⁻¹
- self-cleavage kobs at 2500 uM GlcN6P [3]: < 1e-05 s⁻¹

Variant: AUAAACGCGCCAGAACUACAGAAAUGUAGUUGACGAGGAGAAGGUUUAUCGAAUUUUCGGCGGAUGCCUCCAAA
- self-cleavage kobs at 40 uM GlcN6P [1]: < 1e-05 s⁻¹
- self-cleavage kobs at 640 uM GlcN6P [2]: < 1e-05 s⁻¹
- self-cleavage kobs at 2500 uM GlcN6P [3]: < 1e-05 s⁻¹

Variant: AUAAAAGCGCCAGAACUACAGAAAUGUAAUUGACGAGGAGGAGGUUUAUCGAACUUUCGGCGGAUGCCUCCAAA
- self-cleavage kobs at 40 uM GlcN6P [1]: 0.000148 ± 3.6e-05 s⁻¹
- self-cleavage kobs at 160 uM GlcN6P [5]: 0.000257 ± 7e-05 s⁻¹
- self-cleavage kobs at 640 uM GlcN6P [2]: 0.000813 ± 0.00033 s⁻¹
- self-cleavage kobs at 2500 uM GlcN6P [3]: 0.00138 ± 0.00056 s⁻¹

Variant: AUAAAAGCGCCAGAACUACAGAAAUGUAGUUGACGGGGAGGAGGUUUAUCGAACUUUCGGCGGAUGCCUCCAAA
- self-cleavage kobs at 40 uM GlcN6P [1]: < 1e-05 s⁻¹
- self-cleavage kobs at 160 uM GlcN6P [5]: < 1e-05 s⁻¹

Variant: AUAAAGGCGCCAGAACUACAGAAAUGUAGUUGACGAGGAGGAGGUUUAUCGAAUUUGCGGCGGAUGCCUCCAAA
- self-cleavage kobs at 40 uM GlcN6P [1]: < 1e-05 s⁻¹
- self-cleavage kobs at 160 uM GlcN6P [5]: < 1e-05 s⁻¹
- self-cleavage kobs at 640 uM GlcN6P [2]: < 1e-05 s⁻¹
- self-cleavage kobs at 2500 uM GlcN6P [3]: < 1e-05 s⁻¹
- self-cleavage kobs at 10000 uM GlcN6P [4]: < 1e-05 s⁻¹
